# Measured values taken from patent WO2019186276A2 (dated 2019).
# Where no end group is shown, it is not given here. [ ]: non-standard residue; d: D form. pT = C[C@@H](OP(=O)(O)O)[C@H](N)C(=O)O
# B1: monoclonal antibody DC2E2 (antibody, V domains shown)
# VH: EVQLQQSGAELVRPGALVKLSCKASGFNIKDYYMHWVRQRPDQGLEWIGWLDPENDHTIYDPRFQDRANLTADTSSNTAYLQLSSLTSEDTAVYYCSYYKYDDYWGQGTTLTVS
# VL: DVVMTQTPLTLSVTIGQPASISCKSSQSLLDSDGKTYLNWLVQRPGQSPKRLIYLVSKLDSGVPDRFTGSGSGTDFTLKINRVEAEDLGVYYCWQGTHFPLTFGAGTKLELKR
# notes: also called DC2E2 mAb; hybridoma ATCC PTA-124991
# B2: monoclonal antibody DC2E7 (antibody, V domains shown)
# VH: DVQLVESGGGLVQPGGSRKLSCAASGFTFSSFGMHWVRQAPEKGLEWVAYISGDSNTIYYADTVKGRFTISRDNPKNTLFLQMTSLRSEDTAIYYCARTLAYWGQGTLVTVS
# VL: DIQMTQSSSSFSVSLGDRVTITCKASEDIYNRLAWYQQTPGNAPSLLISGASGLETGVPSRFSGSGSGRDYTLSITSLQTEDVATYYCLQYWSIPWTFGGGTKLEIKR
# notes: also called hybridoma ATCC PTA-124992
# Experiments:
# tau 2N4R(A134-168) = molecular target: T1, tau 2N4R(A134-168) (human, UniProt P10636 1-758); assay: direct ELISA, coated recombinant tau (5 ug/ml), hybridoma supernatant
# T1 construct: The printed 'A' is read as the delta sign (deletion of 134-168); also called tau 2N4R with residues 134-168 deleted
# tau 1-136 = tau 1-136 (human, UniProt P10636 1-387); assay: as above
# tau 221-441 = molecular target: T2, tau 221-441 (human, UniProt P10636 538-758); assay: as above
# T2 construct: Unphosphorylated form used in the DC2E2 ELISA
# [1] = molecular target: recombinant human tau isoform 1N4R (human, UniProt P10636-7 1-412); assay: direct ELISA, coated recombinant tau, hybridoma supernatant
# [2] = molecular target: recombinant human tau isoform 1N3R (human, UniProt P10636-4 1-381); assay: as above
# tau 99-441 = tau 99-441 (human, UniProt P10636 99-758); assay: as above
# tau 1-226 = tau 1-226 (human, UniProt P10636 1-543); assay: as above
# tau151-391 = tau151-391 (human, UniProt P10636 468-708); assay: as above
# tau 31-441 = tau 31-441 (human, UniProt P10636 31-758); assay: as above
# tau 127-441 = tau 127-441 (human, UniProt P10636 378-758); assay: as above
# [3] = molecular target: recombinant human tau isoform 0N3R (human, UniProt P10636-2 1-352); assay: as above
# [4] = molecular target: recombinant human tau isoform 0N4R (human, UniProt P10636-6 1-383); assay: as above
# [5] = molecular target: recombinant human tau isoform 2N3R (human, UniProt P10636-5 1-410); assay: as above
# [6] = molecular target: in vitro phosphorylated tau151-391 (human, UniProt P10636 468-708, in vitro phosphorylated with rat brain kinase extract; sites not determined); assay: immunoblot
# [7] = molecular target: T3, in vitro phosphorylated tau 2N4R (human, UniProt P10636 1-758, in vitro phosphorylated with rat brain kinase extract; sites not determined); assay: immunoblot
# T3 construct: also called phosphorylated 2N4R; 2N4R in vitro phosphorylated
# [8] = molecular target: T4, recombinant human full-length tau 2N4R (human, UniProt P10636 1-758); assay: immunoblot
# T4 construct: Expressed in E. coli, unphosphorylated; also called tau441; physiological tau (2N4R)
# tau 1-242 = molecular target: T5, tau 1-242 (human, UniProt P10636 1-559); assay: ELISA screen of hybridoma supernatants on coated tau 1-242
# T5 construct: Deletion mutant numbered on tau 2N4R
# [9] = molecular target: B2; assay: competition ELISA, peptide in solution with DC2E7, PHF-tau coated plate
# [10] = molecular target: B1; assay: competition ELISA, coated tau 1-242, peptide in solution with purified DC2E2
# [11] = molecular target: B1; assay: competition ELISA, coated tau 1-242, peptide in solution
# [12] = molecular target: phosphorylated tau 2N4R point mutant Thr217Ala (human, UniProt P10636 1-758, in vitro phosphorylated with rat brain kinase extract; sites not determined); assay: immunoblot of in vitro phosphorylated point mutants
# [13] = molecular target: phosphorylated tau 221-441 (human, UniProt P10636 538-758, in vitro phosphorylated with rat brain kinase extract; sites not determined); assay: immunoblot of in vitro phosphorylated deletion mutants
# Chain of phosphorylated tau 221-441 (P10636 538-758 I625L): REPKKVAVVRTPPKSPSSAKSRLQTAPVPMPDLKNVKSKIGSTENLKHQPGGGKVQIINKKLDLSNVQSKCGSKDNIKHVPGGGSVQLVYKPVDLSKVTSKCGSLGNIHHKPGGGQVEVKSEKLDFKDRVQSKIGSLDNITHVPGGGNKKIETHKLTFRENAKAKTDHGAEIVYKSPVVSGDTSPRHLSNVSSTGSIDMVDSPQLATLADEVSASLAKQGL
# Chain of tau 1-226 (P10636 other isoform, or with tags, fused parts or gaps): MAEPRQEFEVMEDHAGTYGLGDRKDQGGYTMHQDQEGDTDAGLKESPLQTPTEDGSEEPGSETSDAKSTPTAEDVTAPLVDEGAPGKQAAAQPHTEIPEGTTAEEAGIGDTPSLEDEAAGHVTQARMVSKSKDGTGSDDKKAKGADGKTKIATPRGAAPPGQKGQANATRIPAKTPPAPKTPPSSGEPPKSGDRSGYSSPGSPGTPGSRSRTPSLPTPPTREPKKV
# T2 sequence (P10636 538-758 I625L): as the sequence (P10636 538-758 I625L) above
# Chain of tau 127-441 (P10636 other isoform, or with tags, fused parts or gaps): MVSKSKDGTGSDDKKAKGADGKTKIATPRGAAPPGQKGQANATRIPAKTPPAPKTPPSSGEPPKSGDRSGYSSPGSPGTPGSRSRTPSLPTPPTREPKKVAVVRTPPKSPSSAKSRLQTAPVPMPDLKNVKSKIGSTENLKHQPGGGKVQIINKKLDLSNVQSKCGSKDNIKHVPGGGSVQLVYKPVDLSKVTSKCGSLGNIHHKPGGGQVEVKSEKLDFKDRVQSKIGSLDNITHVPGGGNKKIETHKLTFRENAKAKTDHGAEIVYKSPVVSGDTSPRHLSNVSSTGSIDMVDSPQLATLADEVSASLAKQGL
# Chain of phosphorylated tau 2N4R point mutant Thr217Ala (P10636 other isoform, or with tags, fused parts or gaps T217A T217A limits assumed): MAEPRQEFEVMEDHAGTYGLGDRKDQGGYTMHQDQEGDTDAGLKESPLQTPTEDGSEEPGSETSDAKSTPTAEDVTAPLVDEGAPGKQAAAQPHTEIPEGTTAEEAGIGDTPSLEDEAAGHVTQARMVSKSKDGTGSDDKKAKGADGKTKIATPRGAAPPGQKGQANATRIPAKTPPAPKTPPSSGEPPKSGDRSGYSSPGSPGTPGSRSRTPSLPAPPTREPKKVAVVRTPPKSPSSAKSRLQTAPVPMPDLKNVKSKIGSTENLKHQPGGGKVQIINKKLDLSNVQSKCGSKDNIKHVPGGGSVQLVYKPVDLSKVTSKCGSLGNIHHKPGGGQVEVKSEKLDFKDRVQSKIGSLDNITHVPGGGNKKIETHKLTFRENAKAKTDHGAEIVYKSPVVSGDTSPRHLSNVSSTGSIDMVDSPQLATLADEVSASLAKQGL
# Chain of recombinant human tau isoform 1N4R (P10636 other isoform, or with tags, fused parts or gaps limits assumed): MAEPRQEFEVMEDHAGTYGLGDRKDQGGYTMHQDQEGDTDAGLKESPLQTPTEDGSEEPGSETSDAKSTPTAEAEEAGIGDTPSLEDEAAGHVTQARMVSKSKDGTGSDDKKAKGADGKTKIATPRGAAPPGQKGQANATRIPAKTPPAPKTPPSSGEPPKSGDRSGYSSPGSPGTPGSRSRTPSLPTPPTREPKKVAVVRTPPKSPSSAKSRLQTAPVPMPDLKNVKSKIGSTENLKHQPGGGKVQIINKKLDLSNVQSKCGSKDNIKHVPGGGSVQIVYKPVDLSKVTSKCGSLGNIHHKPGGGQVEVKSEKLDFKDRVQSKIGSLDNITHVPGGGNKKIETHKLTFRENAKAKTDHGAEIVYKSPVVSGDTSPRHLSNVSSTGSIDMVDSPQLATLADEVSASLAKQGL
# Chain of in vitro phosphorylated tau151-391 (P10636 468-708 I625L): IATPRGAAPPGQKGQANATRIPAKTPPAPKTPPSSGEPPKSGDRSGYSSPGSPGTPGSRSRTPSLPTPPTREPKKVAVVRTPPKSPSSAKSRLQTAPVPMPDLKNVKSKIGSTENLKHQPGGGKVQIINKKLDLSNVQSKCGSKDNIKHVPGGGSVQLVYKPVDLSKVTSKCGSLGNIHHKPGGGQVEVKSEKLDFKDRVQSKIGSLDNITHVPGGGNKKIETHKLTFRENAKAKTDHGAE
# Chain of tau151-391 (P10636 468-708 I625L): as above
# Chain of recombinant human tau isoform 0N4R (P10636 other isoform, or with tags, fused parts or gaps limits assumed): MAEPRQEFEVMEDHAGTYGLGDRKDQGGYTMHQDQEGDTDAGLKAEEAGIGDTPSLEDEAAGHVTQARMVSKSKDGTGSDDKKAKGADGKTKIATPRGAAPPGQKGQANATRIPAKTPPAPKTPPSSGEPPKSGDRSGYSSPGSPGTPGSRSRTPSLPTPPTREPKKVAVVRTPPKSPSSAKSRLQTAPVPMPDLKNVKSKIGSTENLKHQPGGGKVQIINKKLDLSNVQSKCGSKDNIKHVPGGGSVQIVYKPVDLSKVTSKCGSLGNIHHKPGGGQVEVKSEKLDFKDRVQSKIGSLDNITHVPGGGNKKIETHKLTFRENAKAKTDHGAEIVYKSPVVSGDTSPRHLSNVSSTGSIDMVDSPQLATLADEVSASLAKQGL
# Chain of recombinant human tau isoform 2N3R (P10636 other isoform, or with tags, fused parts or gaps limits assumed): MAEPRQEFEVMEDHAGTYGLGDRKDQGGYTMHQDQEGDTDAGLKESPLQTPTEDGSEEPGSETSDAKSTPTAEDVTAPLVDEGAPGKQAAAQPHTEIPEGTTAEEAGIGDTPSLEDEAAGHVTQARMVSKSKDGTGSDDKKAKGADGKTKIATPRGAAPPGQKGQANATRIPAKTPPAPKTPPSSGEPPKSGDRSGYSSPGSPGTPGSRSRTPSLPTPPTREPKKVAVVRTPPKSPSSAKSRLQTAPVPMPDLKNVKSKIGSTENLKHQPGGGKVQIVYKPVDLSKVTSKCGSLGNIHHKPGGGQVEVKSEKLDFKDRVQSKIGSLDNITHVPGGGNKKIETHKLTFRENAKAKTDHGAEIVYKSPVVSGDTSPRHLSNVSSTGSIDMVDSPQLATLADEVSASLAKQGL
# T5 sequence (P10636 other isoform, or with tags, fused parts or gaps): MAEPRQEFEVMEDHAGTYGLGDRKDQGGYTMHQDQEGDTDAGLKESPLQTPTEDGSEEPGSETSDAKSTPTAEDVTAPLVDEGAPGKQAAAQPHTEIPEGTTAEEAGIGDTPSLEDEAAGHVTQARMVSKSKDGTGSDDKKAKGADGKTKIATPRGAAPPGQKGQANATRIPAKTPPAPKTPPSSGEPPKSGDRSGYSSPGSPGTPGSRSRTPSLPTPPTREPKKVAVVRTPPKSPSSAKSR
# Chain of recombinant human tau isoform 1N3R (P10636 other isoform, or with tags, fused parts or gaps limits assumed): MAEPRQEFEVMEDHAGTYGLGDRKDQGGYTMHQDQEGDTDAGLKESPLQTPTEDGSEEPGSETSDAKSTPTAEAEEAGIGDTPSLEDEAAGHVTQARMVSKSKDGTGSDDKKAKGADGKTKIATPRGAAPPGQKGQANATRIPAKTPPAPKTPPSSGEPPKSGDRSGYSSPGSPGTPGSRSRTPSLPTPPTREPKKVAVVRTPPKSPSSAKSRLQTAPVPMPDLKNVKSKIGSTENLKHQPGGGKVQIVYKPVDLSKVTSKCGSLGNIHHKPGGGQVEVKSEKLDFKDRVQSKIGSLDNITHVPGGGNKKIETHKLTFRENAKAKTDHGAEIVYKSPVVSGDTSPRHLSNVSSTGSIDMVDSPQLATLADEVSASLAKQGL
# Chain of recombinant human tau isoform 0N3R (P10636 other isoform, or with tags, fused parts or gaps limits assumed): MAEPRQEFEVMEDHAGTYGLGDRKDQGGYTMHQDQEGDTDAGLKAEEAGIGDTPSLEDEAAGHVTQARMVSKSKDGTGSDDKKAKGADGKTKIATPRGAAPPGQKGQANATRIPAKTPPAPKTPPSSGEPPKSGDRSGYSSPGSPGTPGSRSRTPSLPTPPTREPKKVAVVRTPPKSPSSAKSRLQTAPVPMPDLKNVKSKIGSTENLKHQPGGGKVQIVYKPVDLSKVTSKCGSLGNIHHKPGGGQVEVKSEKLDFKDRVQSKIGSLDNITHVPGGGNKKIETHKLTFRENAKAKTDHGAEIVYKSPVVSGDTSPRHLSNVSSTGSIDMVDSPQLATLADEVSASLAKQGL
# Chain of tau 31-441 (P10636 other isoform, or with tags, fused parts or gaps): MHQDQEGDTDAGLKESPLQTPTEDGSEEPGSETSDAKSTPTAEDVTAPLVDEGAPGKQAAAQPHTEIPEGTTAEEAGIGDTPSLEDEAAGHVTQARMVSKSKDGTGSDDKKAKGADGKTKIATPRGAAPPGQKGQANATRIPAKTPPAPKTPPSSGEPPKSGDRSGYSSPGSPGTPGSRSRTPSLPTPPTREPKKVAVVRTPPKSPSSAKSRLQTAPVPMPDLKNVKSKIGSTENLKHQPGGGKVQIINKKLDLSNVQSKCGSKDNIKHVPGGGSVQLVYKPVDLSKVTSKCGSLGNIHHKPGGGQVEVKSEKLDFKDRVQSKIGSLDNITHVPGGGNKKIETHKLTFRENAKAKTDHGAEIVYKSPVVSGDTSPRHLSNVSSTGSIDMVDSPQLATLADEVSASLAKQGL
# Chain of tau 1-136 (P10636 other isoform, or with tags, fused parts or gaps): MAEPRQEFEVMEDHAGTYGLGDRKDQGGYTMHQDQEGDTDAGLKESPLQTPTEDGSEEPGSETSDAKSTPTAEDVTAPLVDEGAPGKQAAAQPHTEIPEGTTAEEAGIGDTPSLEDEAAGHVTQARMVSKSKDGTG
binder,measurement,setting,value
B1,binding result,tau 2N4R(A134-168),no binding
same,binding result,tau 1-136,no binding
same,binding result,tau 221-441,no binding
same,binding result,[1],binds
same,binding result,[2],binds
same,binding result,tau 99-441,binds
same,binding result,tau 1-226,binds
same,binding result,tau151-391,binds
same,binding result,tau 31-441,binds
same,binding result,tau 127-441,binds
same,binding result,[3],binds
same,binding result,[4],binds
same,binding result,[5],binds
same,binding result,[6],binds
same,binding result,[7],binds
same,binding result,[8],binds
same,binding result,tau 1-242,binds
SR[pT]PSLP[pT]P (Synthetic peptide (EZBiolabs)) [peptide tau 210-218/pT212/pT217],binding result,[9],no binding
GQKGQANATRIPAKTPPAPKTPPSSGEPPK (Synthetic peptide (EZBiolabs)) [peptide tau 161-190],binding result,[10],binds
KAKGADGKTKIATPRGAAPPGQKGQANATR (Synthetic peptide (EZBiolabs)) [peptide tau 141-170],binding result,[11],no binding
IPAKTPPAPKTPPSSGEPPKSGDRSGYSSP (Synthetic peptide (EZBiolabs)) [peptide tau 171-200],binding result,[11],no binding
SR[pT]PSLP[pT]PP (Synthetic peptide (EZBiolabs)) [peptide tau 210-219/pT212/pT217],binding result,[9],no binding
SR[pT]PSLP[pT]PPT (Synthetic peptide (EZBiolabs)) [peptide tau 210-220/pT212/pT217],binding result,[9],no binding
B2,binding result,[12],no binding
same,binding result,[13],no binding
TPPSSGEPPKSGDRSGYSSPGSPGTPGSRS (Synthetic peptide (EZBiolabs)) [peptide tau 181-210],binding result,[11],no binding
